Data as given in patent US9835633.

B1: endogenous PCSK2 of NSE-apoE4 mouse neurons/brain (protein)
chain: GYRDINEIDINMNDPLFTKQWYLFNTGQADGTPGLDLNVAEAWELGYTGKGVTIGIMDDGIDYLHPDLAYNYNADASYDFSSNDPYPYPRYTDDWFNSHGTRCAGEVSAAASNNICGVGVAYNSKVAGIRMLDQPFMTDIIEASSISHMPQLIDIYSASWGPTDNGKTVDGPRELTLQAMADGVNKGRGGKGSIYVWASGDGGSYDDCNCDGYASSMWTISINSAINDGRTALYDESCSSTLASTFSNGRKRNPEAGVATTDLYGNCTLRHSGTSAAAPEAAGVFALALEANLDLTWRDMQHLTVLTSKRNQLHDEVHQWRRNGVGLEFNHLFGYGVLDAGAMVKMAKDWKTVPERFHCVGGSVQNPEKIPPTGKLVLTLKTNACEGKENFVRYLEHVQAVITVNATRRGDLNINMTSPMGTKSILLSRRPRDDDSKVGFDKWPFMTTHTWGEDARGTWTLELGFVGSAPQKGLLKEWTLMLHGTQSAPYIDQVVRDYQSKLAMSKKQELEEELDEAVERSLQSILRKN
B2: endogenous PCSK1 of NSE-apoE4 mouse neurons/brain (protein)
chain: SVQKDSALDLFNDPMWNQQWYLQDTRMTAALPKLDLHVIPVWEKGITGKGVVITVLDDGLEWNHTDIYANYDPEASYDFNDNDHDPFPRYDLTNENKHGTRCAGEIAMQANNHKCGVGVAYNSKVGGIRMLDGIVTDAIEASSIGFNPGHVDIYSASWGPNDDGKTVEGPGRLAQKAFEYGVKQGRQGKGSIFVWASGNGGRQGDNCDCDGYTDSIYTISISSASQQGLSPWYAEKCSSTLATSYSSGDYTDQRITSADLHNDCTETHTGTSASAPLAAGIFALALEANPNLTWRDMQHLVVWTSEYDPLASNPGWKKNGAGLMVNSRFGFGLLNAKALVDLADPRTWRNVPEKKECVVKDNNFEPRALKANGEVIVEIPTRACEGQENAIKSLEHVQFEATIEYSRRGDLHVTLTSAVGTSTVLLAERERDTSPNGFKNWDFMSVHTWGENPVGTWTLKITDMSGRMQNEGRIVNWKLILHGTSSQPEHMKQPRVYTSYNTVQNDRRGVEKMVNVVEKRPTQKSLNGNLLVPKNSSSSNVEGRRDEQVQGTPSKAMLRLLQSAFSKNALSKQSPKKSPSAKLSIPYESFYEALEKLNKPSKLEGSEDSLYSDYVDVFYNTKPYKHRDDRLLQALMDILNEEN

Biological target: human apolipoprotein E4
Sequence (chain, as listed by the source): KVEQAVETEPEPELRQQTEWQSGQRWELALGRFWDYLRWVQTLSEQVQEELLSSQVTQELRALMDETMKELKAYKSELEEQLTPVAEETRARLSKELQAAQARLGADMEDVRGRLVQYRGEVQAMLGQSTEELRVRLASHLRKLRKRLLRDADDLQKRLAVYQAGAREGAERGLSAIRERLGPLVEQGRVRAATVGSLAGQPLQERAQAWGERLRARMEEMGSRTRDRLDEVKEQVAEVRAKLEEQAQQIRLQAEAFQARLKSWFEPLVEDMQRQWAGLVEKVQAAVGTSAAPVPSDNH

| Protein | apoE fragmentation after PCSK2 shRNA in PCSK1 null and PCSK1 WT primary neurons | apoE fragmentation in NSE-apoE4 primary neurons after shRNA knockdown | apoE fragmentation by western blot in brains of PCSK1 null, NSE-apoE4 pups | apoE fragmentation in PCSK1 null primary neurons |
| --- | --- | --- | --- | --- |
| B1 | PCSK2 shRNAs or 7B2 shRNAs decrease apoE fragmentation in PCSK1 null, primary neurons as well as in PCSK1 WT primary neurons | knocking down either PCSK1 or PCSK2 in NSE-apoE4 primary neurons decreased apoE fragmentation |  |  |
| B2 |  | knocking down either PCSK1 or PCSK2 in NSE-apoE4 primary neurons decreased apoE fragmentation | a significant decrease in apoE fragmentation was observed in PCSK1 null, NSE-apoE4 brains compared to that of PCSK1 WT, NSE-apoE4 brains | A decrease of apoE fragmentation was observed in PCSK1 null primary neurons compared to PCSK1 wild-type (WT) neurons |
